Test results reported in patent US9090686B2, “Antibodies for the treatment of HIV” (Pierre Fabre Medicament, priority 2009, dated 2015).
Numbering of substitutions follows the chain as printed.

B1: 515H7: murine anti-CXCR4 monoclonal antibody; light chain variable domain SEQ ID No. 7, heavy chain variable domain SEQ ID No. 8 (antibody, listed as Mus musculus, V domains shown)
VH: EVNLVESGGGLVQPGGSLRLSCATSGFTFTDNYMSWVRQPPGKALEWLGFIRNKANGYTTDYSASVRGRFTISRDNSQSILYLQMNALRAEDSATYYCARDVGSNYFDYWGQGTTLTVSS
VL: DIVMSQSPSSLAVSAGEKVTMSCKSSQSLFNSRTRKNYLAWYQQKPGQSPKLLIYWASARDSGVPARFTGSGSETYFTLTISRVQAEDLAVYYCMQSFNLRTFGGGTKLEIK
B2: 301aE5: murine anti-CXCR4 monoclonal antibody; light chain variable domain SEQ ID No. 34, heavy chain variable domain SEQ ID No. 35 (antibody, listed as Mus musculus, V domains shown)
VH: QVQLKESGPGLVAPSQSLSITCTVSGFSLTDYGVYWVRQPPGKGLEWLGMIWGDGTTDYNSALKSRLSISKDNSKSQVFLKMNTLQTDDTARYYCARGRQFGFDYWGQGTTLTVSS
VL: B1 VL with S22R, Y55F, A59I, D61E, A66D, E74G, Y76D, R83S, M95K, F98Y
B3: c515H7: chimeric antibody 515H7: murine variable domains fused to human Ckappa and IgG1/IgG2/IgG4 constant domains; isotype tested not stated (antibody, V domains shown)
VH: B1 VH
VL: B1 VL

Experiments:
Assay type in all cases: cell-based
CXCR4 homodimer = molecular target: T1, CXCR4 homodimer (Homo sapiens, UniProt P61073); assay: BRET on HEK293 cells expressing CXCR4/Rluc+CXCR4/YFP; details: without SDF-1
T1 construct: expressed in transfected cells; host or cells: HEK293, transient transfection
Text: This functional assay allows to evaluate the conformational changes induced upon SDF-1 and/or 515H7 Mab binding to CXCR4 receptor at the level of CXCR4 homodimer.
(§1) Expression vectors for the investigated interaction partners were constructed as fusion proteins with the corresponding dye (Renilla reniformis luciferase, Rluc and Yellow fluorescent protein, YFP) by applying conventional molecular biology techniques. Two days prior performing BRET experiments, HEK293 cells were transiently transfected with expression vectors coding for the corresponding BRET partners: [CXCR4/Rluc+CXCR4/YFP] to study CXCR4 homodimerization. The day after, cells were distributed in poly-lysine pre-coated white 96 MW plates in complete culture medium [DMEM supplemented with 10% FBS]. Cells were first cultivated at 37° C. with CO2 5% in order to allow cell attachment to the plate. Cells were then starved with 200 μl DMEM/well overnight Immediately prior to the BRET experiment, DMEM was removed and cells were quickly washed with PBS. Cells were then incubated in PBS in the presence or absence of antibody, 10 min at 37° C. prior to the addition of coelenterazine H 5 μM with or without SDF-1 300 nM in a final volume of 50 μl. After incubation for further 10 minutes at 37° C., light-emission acquisition at 485 nm and 530 nm was initiated using the Mithras LB940 multilabel reader (Berthold) (1 s/wavelength/well repeated 15 times at room temperature).
(§2) Calculation of BRET ratio was performed as previously described (Angers et al., 2000): [(emission530 nm)−(emission485 nm)×Cf]/(emission485 nm), where Cf=(emission530 nm)/(emission485 nm) for cells expressing the Rluc fusion protein alone under the same experimental conditions. […] For sake of readability, results are expressed in mi11iBRET units (mBU); mBU corresponds to the BRET ratio multiplied by 1000.
This functional assay allows to evaluate the conformational changes induced upon SDF-1 and/or c515H7 Mab binding to CXCR4 receptor at the level of CXCR4 homodimer.
as §1, with “Cells were then incubated in PBS in the presence or absence of antibody, 10 min at 37° C. prior to the addition of coelenterazine H 5 μM with or without SDF-1 300 nM in a final volume of 50 μl.” left out
as §2, with “milliBRET” for “mi11iBRET”, “1000. […]” for “1000.”

[1] = test system: HIV-1 X4 primary isolate KON; assay: Single cycle neutralization assay in human PBMC, isolate KON; details: for KON % inhibition of infected cells 90: IC for 90% inhibition, human PBMC
Method: (§3) This assay is performed in 36 h using primary isolates KON, MN and 92UG024 concentrated and diluted accordingly to allow the detection 2% infected CD4 T lymphocytes after 2 days of infection.
(§4) Twenty-five microliters of various dilutions of Mabs 515H7, c515H7 and 301aE5 were incubated for 1 h at 37° C. with 25 μl of virus. Human PBMC (25 μl) at 20×10^6 cells/ml were added to the Mab/virus mixture in a 96-well plate (U-bottom, Costar 3599) and cultured for 36 h in RPMI 1640 10% FCS and 20 U/ml IL-2 (R&D Systems, Minneapolis, Minn.).
(§5) After 2 days of culture, HIV-infected lymphocytes were detected by intracellular staining of viral p24 Ag. Cells were fixed and permeabilized using both Cytofix/Cytoperm and Perm/Wash kits (BD Biosciences) according to the manufacturer and stained with a fluorescent anti-p24 Mab (FITC- or PE-anti-p24, clone KC57; Beckman Coulter/Immunotech, Hialeah, Fla.) used at a 1/160 dilution in Perm/Wash solution added for 15 min at 4° C. After washing in PBS with 3% FBS, PBMC were diluted in 300 μl of PBS before flow cytometry analysis (LSRII; BD Biosciences) with DIVA software (BD Biosciences). The percentage of p24-positive cells in the different samples was determined by gating 20,000 events on a living cell population identified by forward- and side-scatter parameters. The living cell subsets were analyzed with the live/dead solution kit (Invitrogen). The p24 Ag-positive value was obtained after subtraction of background events in mock-infected cells.
(§6) The percent of neutralization was defined as the reduction of p24-positive cells compared with control infected wells with no Mab. The neutralizing titer was defined as the concentration of antibody (interpolated between successive dilutions performed in triplicate) that allows a 90% decrease in the percentage of infected cells.
This assay was performed in 36 h using primary isolate KON concentrated and diluted accordingly to allow the detection 2% infected CD4 T lymphocytes after 2 days of infection.
[…] Human PBMC (25 p.1) at 20×10^6 cells/ml were added to the Mab/virus mixture in a 96-well plate (U-bottom, Costar 3599) and cultured for 36 h in RPMI 1640 10% FCS and 20 U/ml IL-2 (R&D Systems, Minneapolis, Minn.).
as §6, with “[…]” for “a 90%”

[2] = test system: HIV-1 X4 primary isolate 92UG024; assay: Single cycle neutralization assay in human PBMC, isolate 92UG024; design: 92UG024 % inhibition of infected cells 90 / 92UG024 % inhibition of infected cells 80: unit not given here; details: for 92UG024 % inhibition of infected cells 90: IC for 90% inhibition
Method: as §3, §4, §5
The percent of neutralization was defined as the reduction of p24-positive cells compared with control infected wells with no Mab. […]

T1 sequence (P61073 whole entry): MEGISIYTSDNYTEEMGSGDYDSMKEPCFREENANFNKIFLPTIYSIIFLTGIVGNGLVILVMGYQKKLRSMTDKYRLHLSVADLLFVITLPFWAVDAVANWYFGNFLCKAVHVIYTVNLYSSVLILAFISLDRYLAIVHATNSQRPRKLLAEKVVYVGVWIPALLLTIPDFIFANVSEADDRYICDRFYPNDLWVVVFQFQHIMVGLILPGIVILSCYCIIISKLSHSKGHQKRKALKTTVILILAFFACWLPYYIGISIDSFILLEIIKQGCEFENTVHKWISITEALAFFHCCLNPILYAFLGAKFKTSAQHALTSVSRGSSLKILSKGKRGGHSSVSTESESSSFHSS
T1 sequence (P61073 whole entry): as above

Molecule	modulation of CXCR4/CXCR4 spatial proximity by the Mab itself (CXCR4 homodimer)	inhibition of HIV-1 X4 KON primary isolate replication in PBMC (in words) [1]	KON % inhibition of infected cells 90 [1] [µg/mL]	inhibition of HIV-1 X4 92UG024 primary isolate replication in PBMC (in words) [2]	92UG024 % inhibition of infected cells 90 ([2]; human PBMC)	92UG024 % inhibition of infected cells 80 ([2]; IC for 80% inhibition, human PBMC)
B1	able to modulate by themselves CXCR4/CXCR4 spatial proximity	able to inhibit	15	able to inhibit	10	
B2	able to modulate by themselves CXCR4/CXCR4 spatial proximity	able to inhibit	>150	able to inhibit	>150	150
B3	able to modulate by itself CXCR4/CXCR4 spatial proximity	able to inhibit	20	able to inhibit	15	
